The text below walks through data of paper PMC7337898.

This data set relates to HrrA (phosphorylated response regulator) (Corynebacterium glutamicum ATCC 13032). The data set can be described thus: EMSA. The following applies: 20 mM Tris-HCl pH 7.5, 50 mM KCl, 10 mM MgCl2, 5% glycerol, 0.5 mM EDTA, 0.005% Triton X-100, 20 min, room temperature, 10 nM DNA with 5-1000 nM HrrA …. On the technique in general: A gel shift assay detects complexes by their altered migration in electrophoresis.

With PctaE, the Kd (apparent Kd) amounted to 125 nM.

In the case of PcydA (Pcyd), under “apparent Kd”, the Kd came to 350 nM.

In the case of PhmuO, where the note is “apparent Kd”, the Kd came to 196 nM.

PsigC/katA: the Kd (apparent Kd (text misprints 270 μM)) stood at 271 nM.
